The target in assay [1] is T1, gp120 (HIV-1, strain  for this …, UniProt Q75760). The assay can be described thus: SPR. In general terms: Surface plasmon resonance follows binding to a sensor surface in real time, without labels.
For assay [2], the target named is T1, gp120. Put plainly: ELISA.

B1: IgG b12 (antibody, V domains shown)
VH: QVQLVQSGAEVKKPGASVKVSCQASGYRFSNFVIHWVRQAPGQRFEWMGWINPYNGNKEFSAKFQDRVTFTADTSANTAYMELRSLRSADTAVYYCARVGPYSWDDSPQDNYYMDVWGKGTTVIVSS
VL: EIVLTQSPGTLSLSPGERATFSCRSSHSIRSRRVAWYQHKPGQAPRLVIHGVSNRASGISDRFSGSGSGTDFTLTITRVEPEDFALYYCQVYGASSYTFGQGTKLERK
Regarding B1, in assay [1], the Kd (in general, the free concentration of one partner at which half of the binding sites on the other are occupied at equilibrium, for simple one-to-one binding) amounted to 36 ± 2 nM and the off-rate constant (koff) (as a rule, a measure of how fast the partners let go of each other) came to 0.0052 s⁻¹. The “10 times EC50” value in assay [2] is 1 µg/mL.

These data come from PMC6364316 (Vaccine, 2018).
